Test results taken from US8911422B2, “Micro-needle device” (Hisamitsu Pharmaceutical Co., Inc., priority 2010, dated 2014).

Tested on: rats
Test: in vivo injection with micro-needle device (Example 2), availability
Parameters: species or system rat
Conditions: coating range 200 μm
Protocol: A micro-needle device similar to that of Example 1 was used to perform in vivo injection (rats) to determine availability. Here, 14C-OVA was coated on each of the micro-needles, and a coating range thereof was 200 μm in height including the top of the micro-needle concerned (that is, the range H=200 μm in FIG. 3 (c)). The 14C-OVA coated on the micro-needle device was about 100 μg in total, and pullulan, that is, a coating carrier, was about 100 μg in total.
On injection, used was a spring impact-type applicator capable of giving an impact due to the elastic energy of 0.4 J/cm^2 to the back face of the micro-needle device. The elastic energy of the spring impact-type applicator is determined by the above-described formula (I). A spring constant for yielding the elastic energy of 0.4 J/cm^2 was 0.569 N/mm. In order to determine the availability, a Geiger-Muller (GM) counter tube was used to count radiant rays, and the measurement result was applied to a previously prepared calibration curve to determine an initially coated quantity and a quantity remaining on the micro-needle device peeled after puncture. Then, the remaining quantity was divided by the initially coated quantity to determine the availability.

B1: 14C-OVA (protein, UniProt P01012 2-386, looked up)
Ovalbumin: GSIGAASMEFCFDVFKELKVHHANENIFYCPIAIMSALAMVYLGAKDSTRTQINKVVRFDKLPGFGDSIEAQCGTSVNVHSSLRDILNQITKPNDVYSFSLASRLYAEERYPILPEYLQCVKELYRGGLEPINFQTAADQARELINSWVESQTNGIIRNVLQPSSVDSQTAMVLVNAIVFKGLWEKAFKDEDTQAMPFRVTEQESKPVQMMYQIGLFRVASMASEKMKILELPFASGTMSMLVLLPDEVSGLEQLESIINFEKLTEWTSSNVMEERKIKVYLPRMKMEEKYNLTSVLMAMGITDVFSSSANLSGISSAESLKISQAVHAAHAEINEAGREVVGSAEAGVDAASVSEEFRADHPFLFCIKHIATNAVLFFGRCVSP
modifications: 14C radiolabel
notes: 14C-OVA coated on the micro-needles with pullulan as coating carrier
For B1, the availability (impact 0.4 J/cm^2 given once) was 38%, the availability (impact 0.4 J/cm^2 once, then pushed one minute at 1 kg/patch) was 42% and the availability (impact 0.4 J/cm^2 once, then pushed one minute at 3 kg/patch) was 58%.
